Biological target: mouse TIGIT, full length, on CHO-K1 cells (mouse) (UniProt P86176)
Assay: flow cytometry, CHO-K1 cells transiently transfected with mouse TIGIT; target taken from the legend paragraph 32 and from paragraph 286 (FIG. 4A = mouse TIGIT); paragraph 286 however names GNE10A7, not G1GD7, as the control for mouse TIGIT

Sequence of mouse TIGIT, full length, on CHO-K1 cells (mouse) (P86176 29-249 limits assumed): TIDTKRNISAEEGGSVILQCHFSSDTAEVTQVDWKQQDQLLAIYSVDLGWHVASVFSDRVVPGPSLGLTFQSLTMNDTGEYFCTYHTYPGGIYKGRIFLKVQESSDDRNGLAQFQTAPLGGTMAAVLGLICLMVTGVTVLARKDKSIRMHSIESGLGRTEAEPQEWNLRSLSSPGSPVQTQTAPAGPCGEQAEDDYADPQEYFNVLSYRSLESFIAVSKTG

EC50 (read off the curve): 0.8 nM
Substance: eBioscience G1GD7 (antibody)

Reference: patent publication US20220064294A1
